Publication PMC9313131

biological target: sBRAF L597R (human) (UniProt P15056); experiment: SEC; Superdex 200 Increase 10/300 GL; 50 mM HEPES pH 7.5, 300 mM NaCl, 0.5 mM TCEP, 1 mM EDTA; relative molecular mass against gel-filtration standards

stoichiometry N	Substance
2	sBRAF L597R (from UniProt P15056 423-723) (domain or fragment)

biological target: CDC37 (cell division cycle 37), wild type, full-length (human) (UniProt Q16543); experiment: ITC; in most cases sBRAF construct at 350 μM injected into 30 μM CDC37 at 20 °C; 20 mM Tris pH 7.5, 1 mM EDTA, 200 mM NaCl; ITC200
Sequence (Q16543 whole entry): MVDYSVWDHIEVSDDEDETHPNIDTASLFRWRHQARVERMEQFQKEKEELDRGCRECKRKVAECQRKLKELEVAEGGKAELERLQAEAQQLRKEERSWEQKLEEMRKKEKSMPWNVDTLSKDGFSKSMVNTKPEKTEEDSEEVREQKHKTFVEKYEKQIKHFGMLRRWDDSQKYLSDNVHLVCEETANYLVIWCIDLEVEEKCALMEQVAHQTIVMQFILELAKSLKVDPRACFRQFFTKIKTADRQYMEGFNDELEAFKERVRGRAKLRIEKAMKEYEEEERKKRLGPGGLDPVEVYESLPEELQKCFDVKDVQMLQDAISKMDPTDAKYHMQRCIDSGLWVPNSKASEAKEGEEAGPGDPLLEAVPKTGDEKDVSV

Kd [nM]	Substance
340	sBRAF L597R-V600E (from UniProt P15056 423-723) (domain or fragment)
1400	sBRAF F595V (from UniProt P15056 423-723) (domain or fragment)
230	sBRAF L597A (from UniProt P15056 423-723) (domain or fragment)
500	sBRAF F595A (from UniProt P15056 423-723) (domain or fragment)
470	sBRAF T599E-V600E-S602D (from UniProt P15056 423-723) (domain or fragment)
1200	sBRAF D594V (from UniProt P15056 423-723) (domain or fragment)
1000	sBRAF, solubilized version of BRAF kinase domain (residues 423-723), V600 background (from UniProt P15056 423-723) (domain or fragment)
230	sBRAF T599W-V600E (from UniProt P15056 423-723) (domain or fragment)
